The values below come from article PMC2266763, “Dimerization of the transmembrane domain of amyloid precursor proteins and familial Alzheimer's disease mutants” (BMC Neuroscience, 2008).

The chains are these.
B1: wild-type APP-TM peptide [modified: acceptor version: Glu with the fluorescent group EDANS covalently linked to its sidechain, after the N-terminal Lys-tag (in place of the Trp of the donor version); acceptor version: Glu with … (parent)
chain 1: GAIIGLMVGGVVIATVIVITLVML
chain 2: GAIIGLMVGGVVIATVIVITLVML
B2: wild-type APP-TM peptide [modified: acceptor version: Glu with the fluorescent group EDANS covalently linked to its sidechain, after the N-terminal Lys-tag (in place of the Trp of the donor version); acceptor version: Glu with … (parent)
chain: GAIIGLMVGGVVIATVIVITLVML

In the first experiment the parent is B1. The experiment is described as follows: FRET. The following applies: 50 µM total peptide concentration, equimolar wild-type and mutant (open bar), parent: 0.73, read off a plot.
For the variant chain 1 T15I, the response came out at 0.44 A/D ratio.
On the same count and under the same terms, next, chain 1 V18G: 1.6 A/D ratio; chain 1 V18F: 0.43 A/D ratio.

The same experiment, now with this note: 20 mM SDS, equimolar Trp-labeled wild-type and Edans-labeled V717G, 50 µM total peptide concentration (highest point of the curve), read off a plot.
Regarding chain 1 V18G, the response worked out at 1.6 A/D ratio.

In another experiment the parent is B2. Description: FRET. The following applies: with itself; 50 µM total peptide concentration; homodimer (solid bar); parent: 0.73; read off a plot.
In the case of chain 1 T15I, the response came to 0.42 A/D ratio.
